Numbered stars: 1 amine (or outer) side, 2 acyl side, 3 side chain; on linkers, the order of the positions; unused ones are H or OH. Square brackets hold non-standard residues; d marks the D form. Side chains are listed from the residue outwards. Ends that are not written are not given here. * marks the point of attachment. Malonyl(2,2-Me2,histaminyl) = CC(C)(C(=O)NCCc1cnc[nH]1)C(=O)*; C20 diacid = O=C(O)CCCCCCCCCCCCCCCCCCC(=O)*; C18 diacid = O=C(O)CCCCCCCCCCCCCCCCC(=O)*; C16 diacid = O=C(O)CCCCCCCCCCCCCCC(=O)*; γGlu = O=C(O)[C@H](CCC(=O)[*:2])N[*:1]; Desaminohistidyl = O=C(CCc1c[nH]cn1)*; Palmitoyl = CCCCCCCCCCCCCCCC(=O)*; Trx = NC[C@H]1CC[C@H](C(=O)O)CC1; AEEA = NCCOCCOCC(=O)O; Aib = CC(C)(N)C(=O)O; Inp = O=C(O)C1CCNCC1
B1: [Imp^7,Glu^22,Arg^26,His^31,Gln^34,Lys^37]-GLP-1-(7-37)-peptide (peptide)
peptide: [Desaminohistidyl]AEGTFTSDVSSYLEEQAAREFIAHLVQGRK
notes: unacylated analogue; also called Chem. 40
B2: [Aib^8,His^31,Gln^34]GLP-1(7-37)-peptide (peptide)
peptide: HXEGTFTSDVSSYLEGQAAKEFIAHLVQGRG
modifications: Aib8 (GLP-1(7-37) numbering)
notes: unacylated analogue; also called (8Aib, 31H, 34Q)
B3: N^ε36-[2-[2-[2-(17-carboxyheptadecanoylamino)ethoxy]ethoxy]acetyl]-[Aib^8,Glu^30,His^31,Gln^34,Lys^36]-GLP-1-(7-37)-peptidyl-Glu amide (peptide)
peptide: HXEGTFTSDVSSYLEGQAAKEFIEHLVQGKGE
HELM: PEPTIDE1{H.[Aib].E.G.T.F.T.S.D.V.S.S.Y.L.E.G.Q.A.A.K.E.F.I.E.H.L.V.Q.G.K.G.E.[am]}|PEPTIDE2{[O=C(O)CCCCCCCCCCCCCCCCC(=O)[*:2]].[O=C(COCCOCCN[*:1])[*:2]]}$PEPTIDE1,PEPTIDE2,30:R3-2:R2$$$V2.0; N-terminus assumed
SMILES: CC[C@H](C)[C@H](NC(=O)[C@H](Cc1ccccc1)NC(=O)[C@H](CCC(=O)O)NC(=O)[C@H](CCCCN)NC(=O)[C@H](C)NC(=O)[C@H](C)NC(=O)[C@H](CCC(N)=O)NC(=O)CNC(=O)[C@H](CCC(=O)O)NC(=O)[C@H](CC(C)C)NC(=O)[C@H](Cc1ccc(O)cc1)NC(=O)[C@H](CO)NC(=O)[C@H](CO)NC(=O)[C@@H](NC(=O)[C@H](CC(=O)O)NC(=O)[C@H](CO)NC(=O)[C@@H](NC(=O)[C@H](Cc1ccccc1)NC(=O)[C@@H](NC(=O)CNC(=O)[C@H](CCC(=O)O)NC(=O)C(C)(C)NC(=O)[C@@H](N)Cc1c[nH]cn1)[C@@H](C)O)[C@@H](C)O)C(C)C)C(=O)N[C@@H](CCC(=O)O)C(=O)N[C@@H](Cc1c[nH]cn1)C(=O)N[C@@H](CC(C)C)C(=O)N[C@H](C(=O)N[C@@H](CCC(N)=O)C(=O)NCC(=O)N[C@@H](CCCCNC(=O)COCCOCCNC(=O)CCCCCCCCCCCCCCCCC(=O)O)C(=O)NCC(=O)N[C@@H](CCC(=O)O)C(N)=O)C(C)C
B4: N^8 3H-Imidazol-4-yl-acetyl, N^ε28-[2-(2-{2-[2-(2-{2-[(S)-4-Carboxy-4-(17-carboxyheptadecanoylamino)butyrylamino]ethoxy}ethoxy)acetylamino] … (peptide)
peptide: AEGTFTSDVSSYLEGQAAK([AEEA-AEEA-γGlu-C18 diacid])EFIAHLVQGRG
modifications: not fully specified (N-terminus); printed as N^8 3H-Imidazol-4-yl-acetyl, N^ε28-[2-(2-{2-[2-(2-{2-[(S)-4-Carboxy-4-(17-carboxyheptadecanoylamino)butyrylamino]ethoxy}ethoxy)acetylamino] ethoxy}ethoxy)acetyl][His^31,Gln^34]GLP-1(8-37)-peptide

How the values were obtained:
[1] = target: T1, human GLP-1 receptor (human, UniProt P43220 24-463); assay: SPA, displacement of 125I-GLP-1(7-36)NH2 from hGLP-1R membranes, 2.0% HSA
T1 construct: whole, on cells; Used as purified plasma membranes of the transfected hamster cell line, not as intact cells; also called hGLP-1
Method: (§1) 25 ul (micro liter) of test compounds were added to Optiplate. HSA ("high albumin" experiment containing 2% HSA), or buffer ("low albumin" experiment containing 0.005% HSA), was added (50 ul). 5-10 ug protein/sample was added (50 ul) corresponding to 0.1-0.2 mg protein/ml (to be preferably optimised for each membrane preparation). SPA-particles (Wheatgerm agglutinin SPA beads, Perkin Elmer, #RPNQ0001) were added in an amount of 0.5 mg/well (50 ul). […] The plates were sealed with PlateSealer and incubated for 120 minutes at 30° C. while shaking. The plates were centrifuged (1500 rpm, 10 min) and counted in Topcounter.

[2] = target: T1, human GLP-1 receptor; assay: SPA, displacement of 125I-GLP-1(7-36)NH2 from hGLP-1R membranes, 0.005% HSA
Method: as §1

Binder	IC50 [1] [nM]	IC50 [2] [nM]
B1	≤ 1000	< 600
H[dA]EGTFTSDVSSYLEGQAAK([AEEA-AEEA-γGlu-C18 diacid])EFIAHLVQGRG	≤ 1000	< 600
B2	≤ 1000	< 600
HXEGTFTSDVSSYLEGQAAKEFIAHLVQGRG (Aib8; Lys26 N-epsilon-acylated (side chain as in name); GLP-1(7-37) numbering) [N^ε26 [2-(2-(2-{2-[(S)-4-Carboxy-4-(15-carboxypentadecanoylamino)butyrylamino]ethoxy}ethoxy)acetyl][Aib^8,His^31,Gln^34]GLP-1(7-37)-peptide, listing 1 of 5 here]	≤ 1000	< 600
HXEGTFTSDVSSYLEGQAAKEFIAHLVQGRG (Aib8; Lys26 N-epsilon-acylated (side chain as in name); GLP-1(7-37) numbering) [N^ε26 [(S)-4-Carboxy-4-(15-carboxypentadecanoylamino)butyryl][Aib^8,His^31,Gln^34]GLP-1(7-37)-peptide, listing 2 of 5 here]	≤ 1000	< 600
HXEGTFTSDVSSYLEGQAAKEFIAHLVQGRG (Aib8; Lys26 N-epsilon-acylated (side chain as in name); GLP-1(7-37) numbering) [N^ε26-[2-(2-{2-[2-(2-{2-[(S)-4-Carboxy-4-(15-carboxypentadecanoylamino)butyrylamino]ethoxy}ethoxy)acetylamino]ethoxy}ethoxy)acetyl][Aib^8,His^31,Gln^34]GLP-1(7- …, listing 3 of 5 here]	≤ 1000	< 600
HXEGTFTSDVSSYLEGQAAKEFIAHLVQGRG (Aib8; Lys26 N-epsilon-acylated (side chain as in name); GLP-1(7-37) numbering) [N^ε26 [(S)-4-Carboxy-4-(2-{2-[2-(2-{2-[2-(17-carboxy-heptadecanoylamino)ethoxy]ethoxy}acetylamino)ethoxy]-ethoxy}acetylamino)butyryl] …, listing 4 of 5 here]	≤ 1000	< 600
HXEGTFTSDVSSYLEGQAAKEFIAHLVQGRG (Aib8; Lys26 N-epsilon-acylated (side chain as in name); GLP-1(7-37) numbering) [N^ε26[2-(2-{2-[(S)-4-Carboxy-4-(2-{2-[2-(17-carboxy-heptadecanoylamino)ethoxy]ethoxy}acetylamino)butyryl amino]ethoxy}ethoxy)acetyl] …, listing 5 of 5 here]	≤ 1000	< 600
H[Aib]EGTFTSDK([AEEA-AEEA-γGlu-C18 diacid])SSYLEEQAAREFIAHLVQGRG	≤ 1000	< 600
H[Aib]EGTFTSDVSK([AEEA-AEEA-γGlu-Inp-C20 diacid])YLEEQAAHEFIAHLVQGRG	≤ 1000	< 600
H[Aib]EGTFTSDVSSYLEEQK([AEEA-AEEA-γGlu-C18 diacid])AREFIAHLVQGRG	≤ 1000	< 600
H[Aib]EGTFTSDVSSYLEGQAARK([AEEA-AEEA-γGlu-C18 diacid])FIAHLVQGRG	≤ 1000	< 600
H[Aib]EGTFTSDVSK([AEEA-AEEA-γGlu-C18 diacid])YLEEQAAREFIAHLVQGRG	≤ 1000	< 600
H[Aib]EGTK([AEEA-AEEA-γGlu-C18 diacid])TSDVSSYLEGQAAKEFIAHLVQGRG	≤ 1000	< 600
H[Aib]EGTFTSDVSSYLEEQAARK([AEEA-AEEA-γGlu-C18 diacid])FIAHLVQGRG	≤ 1000	< 600
H[Aib]EGTFTSDVSSYLEGQAIRK([AEEA-AEEA-γGlu-C18 diacid])FIAHLVQGRG	≤ 1000	< 600

Binder	IC50 [1] [nM]	IC50 [2] [nM]
H[Aib]EGTK([AEEA-AEEA-C18 diacid])TSDVSSYLEEQAAREFIAHLVQGRG	≤ 1000	< 600
H[Aib]EGTFTSDVSSYLEEQAARK([AEEA-AEEA-γGlu-C18 diacid])FIEHLVQGRP	≤ 1000	< 600
H[Aib]EGTK([AEEA-AEEA-γGlu-C18 diacid])TSDVSSYLEEQAAREFIAHLVQGRG	≤ 1000	< 600
[Desaminohistidyl]AEGTFTSDVSSYLEEQAAREFIAHLVQGRK([AEEA-AEEA-γ‑D‑Glu-Trx-C20 diacid])	≤ 1000	< 600
B3	≤ 1000	< 600
B4	≤ 1000	< 600
{Malonyl(2,2-Me2,histaminyl)}-EGTFTSDVSSYLEGQAAK([AEEA-AEEA-γGlu-C18 diacid])EFIAHLVQGRG (also called Chem. 37)	≤ 1000	< 600
HAEGTFTSDVSSYLEGQAAK([γGlu-C16 diacid])EFIAHLVQGRG [N^ε26-[(4S)-4-carboxy-4-(15-carboxypentadecanoylamino)butanoyl]-[His^31,Gln^34]-GLP-1-(7-37)-peptide]	≤ 1000	< 600
HAEGTFTSDVSSYLEGQAAK([AEEA-AEEA-γGlu-C18 diacid])EFIAHLVQGRG	≤ 1000	< 600
HAEGTFTSDVSSYLEEQK([AEEA-AEEA-γGlu-C18 diacid])AREFIAHLVQGRG	≤ 1000	< 600
HAEGTK([AEEA-AEEA-C18 diacid])TSDVSSYLEEQAAREFIAHLVQGRG	≤ 1000	< 600
HGEGTFTSDVSSYLEGQAAK([AEEA-AEEA-γGlu-C18 diacid])EFIAHLVQGRG	≤ 1000	< 600
HAEGTFTSDVSSYLEK([AEEA-AEEA-γGlu-C18 diacid])QAAREFIAHLVQGRG	≤ 1000	< 600
HSEGTFTSDVSSYLEGQAAK([AEEA-AEEA-γGlu-C18 diacid])EFIAHLVQGRG	≤ 1000	< 600
HAEGTK([AEEA-AEEA-γGlu-C18 diacid])TSDVSSYLEEQAAREFIAHLVQGRG	≤ 1000	< 600
HAEGTFTSDVSSYLEGQAAK([γGlu-Palmitoyl])EFIAHLVQGRG [N^ε26-[(4S)-4-carboxy-4-(hexadecanoylamino)butanoyl]-[His^31,Gln^34]-GLP-1-(7-37)-peptide]	≤ 1000	< 600

— patent publication US8815802 (Novo Nordisk, dated 2014)
